# Source: patent publication US20160185837A1 (Medimmune Limited, priority 2013, published 2016)
# Read-outs that look alike come from different tables or passages of the source.
# Columns and labels:
# Format in all cases: cell-based
# [1] = target: T1, human glucagon receptor (GCGr) (Homo sapiens, UniProt P47871); test: BSA-cAMP assay, cells expressing human glucagon receptor
# T1 construct: expressed in transfected cells; host or cells: HEK293s or CHO cells
# Experimental: (§1) One basic cAMP assays was performed, differing in the medium used for the assay, the “BSA-cAMP assay”:
# (§2) BSA-based assay medium: 0.1% bovine serum albumin (BSA) in
# (§3) In certain aspects, the assay can also be carried out in medium supplemented with serum albumin that corresponds to the receptor being tested, e.g., human serum albumin for testing cAMP activity at hGIPr or hGLP-1r, rat serum albumin for testing cAMP activity at rGIPr or rGLP-1r, and so on. […] All sample dilutions were made in duplicate.
# (§4) A frozen cryo-vial of cells expressing the receptor of interest was thawed rapidly in a water-bath, transferred to pre-warmed assay media and spun at 240×g for 5 minutes. Cells were re-suspended in assay buffer at an optimized concentration (e.g., hGLP-1r and hGIPr cells at 0.5×10^5 cells/ml).
# (§5) To this, 5 μL cell suspension was added and the plates incubated at room temperature for 30 minutes.
# (§6) cAMP levels were measured using a commercially available cAMP dynamic 2 HTRF kit (Cisbio, Cat #62AM4PEJ), following the two step protocol as per manufacturer's recommendations. In brief; anti-cAMP cryptate (donor fluorophore) and cAMP-d2 (acceptor fluorophore) were made up separately by diluting each 1/20 in conjugate & lysis buffer provided in the kit. 5 μL anti-cAMP cryptate was added to all wells of the assay plate, and 5 μL cAMP-d2 added to all wells except non-specific binding (NSB) wells, to which conjugate and lysis buffer was added. […] Data was transformed to % Delta F as described in manufacturer's guidelines and then transformed to percent activation of maximal native agonist response and analysed by 4-parameter logistic fit to determine EC50 values.
# (§7) We used unconstrained 4 parameter logistic fit of data, curve mid-point to determine EC50. This was tested on two occasions, not two batches.
# [2] = target: T2, human GLP-1 receptor (hGLP-1r) (Homo sapiens, UniProt P43220); test: BSA-cAMP assay, cells expressing human GLP-1 receptor; details: BSA-cAMP assay
# T2 construct: expressed in transfected cells
# Experimental: as §1, §2, §3, §4, §5, §6, §7
# [3] = target: T3, human GIP receptor (hGIPr) (Homo sapiens, UniProt P48546); test: BSA-cAMP assay, cells expressing human GIP receptor; details: BSA-cAMP assay
# T3 construct: expressed in transfected cells
# T3 sequence (P48546 22-466): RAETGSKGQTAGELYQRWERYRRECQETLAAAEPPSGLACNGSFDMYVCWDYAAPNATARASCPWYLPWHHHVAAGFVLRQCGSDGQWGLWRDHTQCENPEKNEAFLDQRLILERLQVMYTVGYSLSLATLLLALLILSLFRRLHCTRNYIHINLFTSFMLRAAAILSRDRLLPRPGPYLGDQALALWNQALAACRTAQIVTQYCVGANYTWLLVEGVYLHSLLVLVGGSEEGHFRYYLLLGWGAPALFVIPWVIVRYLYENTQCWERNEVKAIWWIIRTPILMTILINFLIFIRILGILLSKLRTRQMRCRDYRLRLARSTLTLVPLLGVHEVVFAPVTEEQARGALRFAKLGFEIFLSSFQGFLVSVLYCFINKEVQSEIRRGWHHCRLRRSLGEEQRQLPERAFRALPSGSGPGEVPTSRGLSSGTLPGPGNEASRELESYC
# Experimental: For human GIPr, two different lines were used, shown as “hGIPr” and “hGIPr (C3)” in Table 11.
# as §1, §2, §3, §4, §5, §6, §7
# [4] = target: T4, rat GLP-1 receptor (rGLP-1r) (Rattus norvegicus, UniProt P32301); test: BSA-cAMP assay, cells expressing rat GLP-1 receptor; details: BSA-cAMP assay
# T4 construct: expressed in transfected cells; host or cells: HEK293s or CHO cells
# T4 sequence (P32301 22-463): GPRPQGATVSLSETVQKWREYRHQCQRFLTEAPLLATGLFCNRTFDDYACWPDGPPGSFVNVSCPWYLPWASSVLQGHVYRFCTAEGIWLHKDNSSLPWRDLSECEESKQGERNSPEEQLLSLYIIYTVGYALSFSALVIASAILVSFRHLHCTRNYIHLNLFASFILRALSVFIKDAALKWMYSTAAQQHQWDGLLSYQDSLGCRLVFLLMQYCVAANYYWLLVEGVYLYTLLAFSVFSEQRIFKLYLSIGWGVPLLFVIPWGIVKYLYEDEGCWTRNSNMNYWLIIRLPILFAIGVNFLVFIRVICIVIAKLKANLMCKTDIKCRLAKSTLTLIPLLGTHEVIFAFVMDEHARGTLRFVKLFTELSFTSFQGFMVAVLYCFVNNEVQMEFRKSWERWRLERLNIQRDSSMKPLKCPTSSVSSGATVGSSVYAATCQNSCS
# Experimental: as §1, §2, §3, §4, §5, §6, §7
# (§8) In order to be able to carry out in vivo studies in rodents, IP088 was tested for potency against the mouse receptors mGIPr and mGLP-1r as well as the rat receptors rGIPr and rGLP-1r, using cells expressing the respective receptors in the cAMP assay described above.
# rat GIP receptor (rGIPr) = target: T5, rat GIP receptor (rGIPr) (Rattus norvegicus, UniProt P43219); test: BSA-cAMP assay, cells expressing rat GIP receptor; details: BSA-cAMP assay
# T5 construct: expressed in transfected cells; host or cells: HEK293s or CHO cells
# T5 sequence (P43219 19-455): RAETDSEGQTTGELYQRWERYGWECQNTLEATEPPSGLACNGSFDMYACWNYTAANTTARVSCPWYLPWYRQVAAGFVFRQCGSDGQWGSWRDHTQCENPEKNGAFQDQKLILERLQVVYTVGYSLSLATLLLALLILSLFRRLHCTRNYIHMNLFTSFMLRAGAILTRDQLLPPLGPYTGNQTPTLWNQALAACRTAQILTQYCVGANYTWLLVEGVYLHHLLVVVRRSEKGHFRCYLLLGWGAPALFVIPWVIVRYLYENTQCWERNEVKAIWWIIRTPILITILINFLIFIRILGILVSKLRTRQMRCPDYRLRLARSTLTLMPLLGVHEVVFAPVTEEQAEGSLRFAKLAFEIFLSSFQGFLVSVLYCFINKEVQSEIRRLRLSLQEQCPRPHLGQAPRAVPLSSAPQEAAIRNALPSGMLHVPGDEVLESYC
# Experimental: as §1, §2, §3, §4, §5, §6, §7, §8
# [5] = target: T6, mouse GIP receptor (mGIPr) (Mus musculus, UniProt Q0P543); test: BSA-cAMP assay, cells expressing mouse GIP receptor; details: BSA-cAMP assay
# T6 construct: expressed in transfected cells; host or cells: HEK293s or CHO cells
# T6 sequence (Q0P543 19-460): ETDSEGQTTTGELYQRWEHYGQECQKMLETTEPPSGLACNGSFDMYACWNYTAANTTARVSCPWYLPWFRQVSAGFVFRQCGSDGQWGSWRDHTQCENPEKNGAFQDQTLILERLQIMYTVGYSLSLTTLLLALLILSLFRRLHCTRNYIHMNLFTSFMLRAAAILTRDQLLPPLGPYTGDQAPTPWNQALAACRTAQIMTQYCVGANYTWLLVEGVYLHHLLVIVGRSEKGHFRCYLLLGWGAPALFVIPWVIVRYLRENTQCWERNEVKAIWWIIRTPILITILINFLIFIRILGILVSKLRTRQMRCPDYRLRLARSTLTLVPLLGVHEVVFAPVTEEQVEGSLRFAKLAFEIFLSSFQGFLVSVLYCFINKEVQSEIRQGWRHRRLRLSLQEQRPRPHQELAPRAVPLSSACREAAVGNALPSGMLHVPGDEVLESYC
# Experimental: as §1, §2, §3, §4, §5, §6, §7, §8
# [6] = target: T7, mouse GLP-1 receptor (mGLP-1r) (Mus musculus, UniProt O35659); test: BSA-cAMP assay, cells expressing mouse GLP-1 receptor; details: BSA-cAMP assay
# T7 construct: expressed in transfected cells; host or cells: HEK293s or CHO cells
# T7 sequence (O35659 22-463): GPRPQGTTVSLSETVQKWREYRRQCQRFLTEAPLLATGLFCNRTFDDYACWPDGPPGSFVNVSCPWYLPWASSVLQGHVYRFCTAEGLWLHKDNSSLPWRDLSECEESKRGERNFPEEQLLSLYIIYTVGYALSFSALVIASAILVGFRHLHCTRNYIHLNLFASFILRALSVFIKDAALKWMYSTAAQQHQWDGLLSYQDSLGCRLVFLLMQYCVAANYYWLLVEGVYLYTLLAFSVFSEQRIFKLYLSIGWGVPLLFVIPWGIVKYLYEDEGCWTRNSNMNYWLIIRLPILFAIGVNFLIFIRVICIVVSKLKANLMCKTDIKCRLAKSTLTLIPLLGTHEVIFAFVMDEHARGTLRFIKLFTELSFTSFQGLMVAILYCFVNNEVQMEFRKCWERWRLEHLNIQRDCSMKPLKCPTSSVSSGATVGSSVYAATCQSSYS
# Experimental: as §1, §2, §3, §4, §5, §6, §7, §8
# [7] = Batch 1, read-out: hGCGr cAMP activity EC50
# [8] = Batch 1, read-out: hGLP1r cAMP activity EC50
# [9] = Batch 1, read-out: hGIPr cAMP activity EC50
# [10] = Batch 1, read-out: rGLP1r cAMP activity EC50
# [11] = Batch 1, read-out: rGIPr cAMP activity EC50
# [12] = Batch 1, read-out: mGIPr cAMP activity EC50
# [13] = Batch 1, read-out: mGLP1r cAMP activity EC50
# T2 sequence (P43220 24-463): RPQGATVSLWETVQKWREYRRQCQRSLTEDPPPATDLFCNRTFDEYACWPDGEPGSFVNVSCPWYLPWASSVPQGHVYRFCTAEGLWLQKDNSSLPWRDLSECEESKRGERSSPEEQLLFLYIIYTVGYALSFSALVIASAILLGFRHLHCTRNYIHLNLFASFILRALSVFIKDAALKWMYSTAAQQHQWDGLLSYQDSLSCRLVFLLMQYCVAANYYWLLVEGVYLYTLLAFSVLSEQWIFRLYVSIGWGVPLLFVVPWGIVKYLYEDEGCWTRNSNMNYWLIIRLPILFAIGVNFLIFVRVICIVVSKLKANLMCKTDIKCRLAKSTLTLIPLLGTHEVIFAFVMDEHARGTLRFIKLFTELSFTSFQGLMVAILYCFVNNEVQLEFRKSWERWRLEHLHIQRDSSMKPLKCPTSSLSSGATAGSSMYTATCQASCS
# T1 sequence (P47871 26-477): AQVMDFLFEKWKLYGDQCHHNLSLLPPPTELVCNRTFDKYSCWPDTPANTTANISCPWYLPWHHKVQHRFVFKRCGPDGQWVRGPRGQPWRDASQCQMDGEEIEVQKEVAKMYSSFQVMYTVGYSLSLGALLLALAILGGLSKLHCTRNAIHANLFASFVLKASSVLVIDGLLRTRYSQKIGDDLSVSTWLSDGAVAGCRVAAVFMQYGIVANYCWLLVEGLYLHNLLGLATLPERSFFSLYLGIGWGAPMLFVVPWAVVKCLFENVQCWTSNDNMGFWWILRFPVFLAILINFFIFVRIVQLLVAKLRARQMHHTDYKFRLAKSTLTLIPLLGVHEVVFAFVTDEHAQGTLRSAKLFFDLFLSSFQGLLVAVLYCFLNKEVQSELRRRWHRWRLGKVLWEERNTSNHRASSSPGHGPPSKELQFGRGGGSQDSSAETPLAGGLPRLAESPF
Substance,"EC50 [1, 7] [nM]","EC50 [2, 8] [nM]","EC50 [3, 9] [nM]","EC50 [4, 10] [nM]",EC50 (rat GIP receptor (rGIPr); [11]) [nM],"EC50 [5, 12] [nM]","EC50 [6, 13] [nM]","EC50 ([1]; batch 1 unless a batch is given, read-out: cAMP activity hGCGr (EC50)) [nM]","EC50 ([2]; batch 1 unless a batch is given, read-out: cAMP activity hGLP1r (EC50)) [nM]","EC50 ([3]; batch 1 unless a batch is given, read-out: cAMP activity hGIPr (EC50)) [nM]",EC50 ([4]; read-out: cAMP activity rGLP1r (EC50)) [nM],EC50 (rat GIP receptor (rGIPr); read-out: cAMP activity rGIPr (EC50)) [nM],EC50 ([5]; read-out: cAMP activity mGIPr (EC50)) [nM],EC50 ([6]; read-out: cAMP activity mGLP1r (EC50)) [nM]
"IP380: Fc fusion, IgG1-fusion, SEQ ID NO:376; agonist peptide YSEGTFTSDYSKLLEEEAVRLFIEFLLAGG (YSEGTFTSDYSKLLEEEAVRLFIEFLLAGGGGGGSGGGGSGGGGSGGGGSATHTCPPC)",25,0.11,0.0084,0.031,0.06,6.6,1.2,–,–,–,–,–,–,–
IP308 (YSEGTFISDYSIALAAAAAKDFVNWLLAGGGGGGGSGGGGSGGGGSGGGGSATHTCPPC),≥ 1500,1300,0.025,700,0.09,0.17,> 1520,–,–,–,–,–,–,–
IP395 (YSEGTFTSDYSKLLERQAIDEFIAHLLKGGGGGGGSGGGGSGGGGSGGGGSACPPC),380,0.12,0.012,0.016,0.063,3.3,3.8,–,–,–,–,–,–,–
"IP289: Fc fusion, IgG1-TM(ΔK), SEQ ID NO:342; agonist peptide YSEGTFTSDYSKLLEKEAERLFIEWLLKGP (YSEGTFTSDYSKLLEKEAERLFIEWLLKGPGGGGGSGGGGSGGGGSGGGGSATHTCPPC)",–,–,–,–,–,–,–,240,3.4,0.01,0.23,0.02,0.44,6.8
IP385 (YSEGTFTSDYSIYLDRQAIDEFIAWLLKGGGGGGGSGGGGSGGGGSGGGGSACPPC),> 1560,0.47,0.012,0.16,1.1,18,30,–,–,–,–,–,–,–
"IP359: Fc fusion, IgG1-TM, SEQ ID NO:366; agonist peptide YSEGTFTSDYSKLLEEEAVRLFIEHLLAGG (YSEGTFTSDYSKLLEEEAVRLFIEHLLAGGGGGGSGGGGSGGGGSGGGGSATHTCPPC)",43,0.061,0.011,0.04,0.039,8.3,0.2,–,–,–,–,–,–,–
